The target of this assay is H5N1 A/Vietnam/1203/2004 hemagglutinin, trypsin-cleaved (HA1/HA2), as crystallised with JNJ4796 (influenza A virus H5N1 A/Vietnam/1203/2004) (UniProt Q5EP31). The assay can be described thus: crystal structure.

By stoichiometry N is commonly meant the number of molecules, sites or subunits per partner or assembly. In the case of “H5N1 A/Vietnam/1203/2004 hemagglutinin, trypsin-cleaved (HA1/HA2), as crystallised with JNJ4796 (from UniProt Q5EP31 1-568; Q5EP31 1-568) (natural protein)”, the stoichiometry N turned out to be 3.

Values taken from publication PMC6457909 (Science (New York, N.Y.), 2019).
